From patent US6458930B1, “Aspergillus fumigatus cofilin” (Cytokinetics, Inc., priority 2000, dated 2002) come the findings set out here.

In this assay the target is T1, preassembled pyrene-actin filaments (Gallus gallus, UniProt P68139).
T1 construct: Extract chicken breast acetone powder (as prepared above) in Buffer A; from tissue; host or cells: chicken breast muscle (actin); E. coli (cofilin, made in house)
Nature of the assay: pyrene actin assay (fluorescence of preassembled pyrene-actin filaments). It counts as biochemical, chicken. The conditions noted are these: addition of stoichiometric amounts of cofilin to preassembled pyrene-actin filaments; binding to actin polymer and enhancing depolymerization combined. An excerpt:
Assays for the interaction of A. fumigatus cofilin and any other cofilin with actin in 384-well plates using a fluorescence as the detection means have been developed. The assays employ pyrene-labeled actin (Pollard (1984) J Cell Biol 99:769-777).
Upon addition of cofilin to filamentous pyrene-actin, two well-characterized biochemical activities can be monitored. First, cofilin binds to the filaments and partially quenches the pyrene fluorescence. Second, it induces filament disassembly, further decreasing pyrene fluorescence. The decrease in fluorescence that results when cofilin is added to filamentous actin is monitored (FIG. 3). An inhibitor of the interaction of cofilin with pyrene-actin will result in an increase in fluorescence.
This very robust signal can be exploited to an assay for modulators of cofilin. Chicken skeletal actin was used because it can be purified in quantities needed for high throughput screening; it is 90% identical in amino acid sequence to fungal actin, and it can assemble into copolymers with fungal actin. Pyrene-labeled skeletal actin has been prepared and characterized as to its polymerization properties as well as for its interaction with fungal cofilin.

B1: A. fumigatus cofilin: protein of A. fumigatus capable of binding actin, amino acid sequence SEQ ID NO:2, expressed in E. coli (protein, listed as Aspergillus fumigatus)
chain: MALASGVSIADECITAFNDFRMSGNKANKTKFIIFKIADNKKEVVIDEVSQEEDYEVFRSRLEATKDSKGNPAPRYAVYDVEYDLGGGEGKRSKIVFISWVPSDTPTLWSMIYASTRENLKNALNIHTSIHADDKGDIEWKTVLAEASGGKAGK
Take B1: the “reduction in fluorescence intensity” value is 3-5 fold.
